Substitutions are numbered along the chain they refer to.

One test concerns the target T1, human CD3 (human, UniProt P07766 23-126).
T1 construct: not shown: A CD3 delta or gamma partner chain is possible if the reagent was a heterodimer
The experiment in a line: SPR (Biacore); CD3 captured on anti-His antibody chip, antibody injected at 5 concentrations. As for the experimental part:
A series of sample antibodies were assayed for SPR (Surface Plasmon Resonance) signals upon human CD3 binding on the Biacore platform. Ka, Kd and KD were calculated from the experimental results and used to evaluate affinity of the antibodies for human CD3. CD3 molecules as ligands were immobilized to chips conjugated with anti-histine antibodies. Sample antibodies, at 5 different concentrations, were injected to the system to be analyzed.
For orientation: In SPR one partner is held on a chip, and binding of the other changes the refractive index at the surface.

For test [1], the target named is T2, human CD19 (His-tagged) (human, UniProt P15391 20-291).
T2 construct: Captured on chips carrying anti-histidine antibodies
T2 sequence (looked up): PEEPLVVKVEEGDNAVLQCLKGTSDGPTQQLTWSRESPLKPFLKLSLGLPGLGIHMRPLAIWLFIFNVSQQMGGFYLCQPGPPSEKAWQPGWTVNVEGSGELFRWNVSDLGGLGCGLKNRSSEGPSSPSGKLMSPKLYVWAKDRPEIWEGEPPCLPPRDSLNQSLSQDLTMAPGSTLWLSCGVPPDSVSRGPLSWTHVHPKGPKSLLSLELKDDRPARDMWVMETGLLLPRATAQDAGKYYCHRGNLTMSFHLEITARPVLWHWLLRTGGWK
The experiment in a line: SPR (Biacore); CD19 captured on anti-His antibody chip, antibody injected at 5 concentrations. As to the method:
A series of sample antibodies were assayed for SPR (Surface Plasmon Resonance) signals upon human CD19 binding on the Biacore platform. Kₐ, Kd and KD were calculated from the experimental results and used to evaluate affinity of the antibodies for human CD19. CD19 molecules as ligands were immobilized to chips conjugated with anti-histine antibodies. Sample antibodies, at 5 different concentrations, were injected to the system to be analyzed. Anti-CD3 antibody UCHT1 and anti-CD19 antibody HD37 were also examined as #20 and #21, respectively. The results are shonw in FIG. 7 and Table 15.

Test [2] has as its target T2, human CD19 (His-tagged). Described as above. As for the experimental part:
Affinity: Affinity kinetics studies based on human CD19-binding assays. A series of sample antibodies were assayed for SPR (Surface Plasmon Resonance) signals upon human CD19 binding on the Biacore platform. Kₐ, Kd and KD were calculated from the experimental results and used to evaluate affinity of the antibodies for human CD19. CD19 molecules as ligands were immobilized to chips conjugated with anti-histine antibodies. Sample antibodies, at 5 different concentrations, were injected to the system to be analyzed.
The source holds these as a separate data set.

Another test concerns the target T3, human CD3E (human, UniProt P07766 23-126, limits assumed).
T3 construct: Captured on chips carrying anti-histidine antibodies, 'using the same method' as the His-tagged CD19
The experiment in a line: SPR (BIAcore); human CD3E captured on anti-His antibody chip, antibody at 5 concentrations. As for the experimental part:
(§1) Binding affinity for human CD3E or human CD19 of the CD3×CD19 bispecific antibody was tested by BIAcore, and Kₐ, Kd and KD values of the antibody were calculated based on the results. His-tagged human CD19 was used as ligand and captured on chips conjugated with anti-histine antibodies. Candidate molecules in five different concentrations were analyzed for their affinity for CD19. Affinity for human CD3E was examined using the same method.

For test [3], the target named is T2, human CD19 (His-tagged). The test can be described thus: SPR (BIAcore); His-tagged human CD19 captured on anti-His antibody chip, antibody at 5 concentrations. As to the method:
as §1

T3 sequence (P07766 23-126 limits assumed): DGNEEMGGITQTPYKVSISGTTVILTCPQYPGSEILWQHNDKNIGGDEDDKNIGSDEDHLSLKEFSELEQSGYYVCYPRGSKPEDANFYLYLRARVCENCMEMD
T1 sequence (P07766 23-126 limits assumed): as above

B1: HD37, anti-CD19 parental antibody (#21) (antibody, V domains shown)
VH: QVQLQQSGAELVRPGSSVKISCKASGYAFSSYWMNWVKQRPGQGLEWIGQIWPGDGDTNYNGKFKGKATLTADESSSTAYMQLSSLASEDSAVYFCARRETTTVGRYYYAMDYWGQGTSVTVSS
VL: DIQLTQSPASLAVSLGQRATISCKASQSVDYDGDSYLNWYQQIPGQPPKLLIYDASNLVSGIPPRFSGSGSGTDFTLNIHPVEKVDAATYHCQQSTEDPWTFGGGTKLEIK
notes: also called 021
On to B1, for which the binding result with human CD3 is “no binding”. The Kd worked out at 0.537 nM with human CD19 (His-tagged) [1] and 3.81 nM with human CD19 (His-tagged) [2].

B2: Antibody #50, TRIAD CD19×CD3 (Fab arm anti-CD19) (bispecific antibody)
chain 1: DIQMTQSPSSLSASVGDRVTITCRASQDIRNYLNWYQKKPGKAPKLLIYYTSRLESGVPSRFSGSGSGTDYTLTISSLQPEDFATYYCQQGNTLPWTFGCGTKVEIK
chain 2: B1 VH with Q39K
chain 3: B1 VL with Q42D
chain 4: EVQLVESGGGLVQPGGSLRLSCAASGYSFTGYTMNWVRDAPGKCLEWVALINPYKGVSTYNQKFKDRFTISVDKSKNTAYLQMNSLRAEDTAVYYCARSGYYGDSDWYFDVWGQGTLVTVSS
chain 5: B1 VH
chain 6: B1 VL
For the molecule B2, in the test with human CD19 (His-tagged) [2], the affinity, expressed as Kd, was 1.73 nM.

B3: Antibody #54, TRIAD CD19×CD3 (Fab arm anti-CD19) (bispecific antibody)
chain 1: B1 VL with Q42K, G104C
chain 2: B2 chain 4 with D39K, C44G
chain 3: B2 chain 1 with K38D, C100Q
chain 4: B1 VH with Q39D, G44C
chain 5: B1 VH
chain 6: B1 VL
In the test with human CD19 (His-tagged) [2], B3 registered a Kd of 0.806 nM.

B4: Antibody #25, CD19×CD3 DICAD (bispecific antibody, name in Kabat numbering)
chain 1: DIQLTQSPASLAVSLGQRATISCKASQSVDYDGDSYLNWYQDIPGQPPKLLIYDASNLVSGIPPRFSGSGSGTDFTLNIHPVEKVDAATYHCQQSTEDPWTFGGGTKLEIKGGSGGSGGSEVQLVESGGGLVQPGGSLRLSCAASGYSFTGYTMNWVRDAPGKCLEWVALINPYKGVSTYNQKFKDRFTISVDKSKNTAYLQMNSLRAEDTAVYYCARSGYYGDSDWYFDVWGQGTLVTVSS
chain 2: DIQMTQSPSSLSASVGDRVTITCRASQDIRNYLNWYQKKPGKAPKLLIYYTSRLESGVPSRFSGSGSGTDYTLTISSLQPEDFATYYCQQGNTLPWTFGCGTKVEIKGGSGGSGGSQVQLQQSGAELVRPGSSVKISCKASGYAFSSYWMNWVKKRPGQGLEWIGQIWPGDGDTNYNGKFKGKATLTADESSSTAYMQLSSLASEDSAVYFCARRETTTVGRYYYAMDYWGQGTSVTVSS
notes: Same mutations as #9, with the 9-residue linker; also called 025; Sample25; not shown: hinge-CH2-CH3
As to B4, the results for the Kd with human CD3 and with human CD19 (His-tagged) [1] were 34.9 nM and 1 nM, respectively.

B5: Antibody #43, CD19×CD3 DICAD (bispecific antibody)
chain 1: B4 chain 1 with D42Q
chain 2: B4 chain 2 with K155Q
notes: also called 043; Sample43; not shown: hinge-CH2-CH3
For the molecule B5, the values for the Kd with human CD3 and in the test with human CD19 (His-tagged) [1] were 269 nM and 0.537 nM, respectively.

B6: Antibody #63, DICAD CD19×CD3 (1:1) bispecific (bispecific antibody)
chain 1: EIVLTQSPATLSVTPGERATLSCSASSSVSYMHWYQKKPGQAPRLLIYDTSKLASGIPARFSGSGSGTDFTLTISSLEPEDFAVYYCFQGSVYPFTFGCGTKLEIKRTVAAEVQLVESGGGLVQPGGSLRLSCAASGFTFNTYAMNWVRKAPGKGLEWVGRIRSKYNNYATYYADSVDKGRFTISRDDSKNSLYLQMNSLKTEDTAVYYCVRHGNFGNSYVSWFAYWGQGTLVTVSS
chain 2: EAVVTQEPSLTVSPGGTVTLTCRSSTGAVTTSNYANWVQDKPGQAPRGLIGGTNKRAPWTPARFSGSLLGGKAALTITGAQPEDEAGYYCALWYSNLWVFGGGTKLTVLRTVAAQVQLQESGPGLVKPSQTLSLTCTVSGGSISTSGMGVGWIRDHPGKCLEWIGHIWWDDDKRYNPALKSRVTISVDTSKNQFSLKLSSVTAADTAVYYCARMELWSYYFDYWGQGTTLTVSSASEPKSDKTHTCPPCPAPPVAGGPSVPLPPPKPKDTLMISRTPEVTCVVVDVSQEDPEVKFNWYVDGVGVHNAKTKPREEQFNSTYRVVSVLTVLHQDWLNGKEYKCKVSNKGLPSSIEKTISKAKGQPREPQVYTLPPCRDELTKNQVSLWCLVKGFYPSDIAVEWESNGQPENNYKTTPPVLDSDGSFFLYSKLTVDKSRWQQGNVFSCSVMHEALHNHYTQKSLSLSPGK
chain 3: DKTHTCPPCPAPPVAGGPSVFLFPPKPKDTLMISRTPEVTCVVVDVSQEDPEVKFNWYVDGVEVHNAKTKPREEQFNSTYRVVSVLTVLHQDWLNGKEYKCKVSNKGLPSSIEKTISKAKGQPREPQVCTLPPSRDELTKNQVSLSCAVKGFYPSDIAVEWESNGQPENNYKTTPPVLDSDGSFFLVSKLTVDKSRWQQGNVFSCSVMHEALHNRFTQKSLSLSPGK
notes: also called 063; #63-CD3×CD19 bispecific
In the test with human CD3E, B6 came in with a Kd of 31.4 nM, a koff of 0.0153 s⁻¹ and a kon of 488000 M⁻¹ s⁻¹. In the test with human CD19 (His-tagged) [3], this molecule registered a Kd of 1.83 nM, a koff of 0.000669 s⁻¹ and a kon of 365000 M⁻¹ s⁻¹.

B7: Antibody #1, CD19×CD3 Di-Diabody from HD37 and UCHT1, no interface mutations (bispecific antibody)
chain 1: DIQLTQSPASLAVSLGQRATISCKASQSVDYDGDSYLNWYQQIPGQPPKLLIYDASNLVSGIPPRFSGSGSGTDFTLNIHPVEKVDAATYHCQQSTEDPWTFGGGTKLEIKRTVAAEVQLVESGGGLVQPGGSLRLSCAASGYSFTGYTMNWVRQAPGKGLEWVALINPYKGVSTYNQKFKDRFTISVDKSKNTAYLQMNSLRAEDTAVYYCARSGYYGDSDWYFDVWGQGTLVTVSS
chain 2: DIQMTQSPSSLSASVGDRVTITCRASQDIRNYLNWYQQKPGKAPKLLIYYTSRLESGVPSRFSGSGSGTDYTLTISSLQPEDFATYYCQQGNTLPWTFGQGTKVEIKRTVAAQVQLQQSGAELVRPGSSVKISCKASGYAFSSYWMNWVKQRPGQGLEWIGQIWPGDGDTNYNGKFKGKATLTADESSSTAYMQLSSLASEDSAVYFCARRETTTVGRYYYAMDYWGQGTSVTVSS
notes: Peptide 1: CD19VL-linker-CD3VH-hinge-CH2-CH3; also called 001; Sample01; not shown: hinge-CH2-CH3
In the case of B7, the Kd in the test with human CD19 (His-tagged) [1] is 0.769 nM.

B8: Antibody #9, CD19×CD3 DICAD (bispecific antibody, name in Kabat numbering)
chain 1: B7 chain 1 with Q42D, Q155D, G160C
chain 2: B7 chain 2 with Q38K, Q100C, Q151K
notes: also called 009; not shown: hinge-CH2-CH3
As to B8, the figures for the Kd with human CD3 and with human CD19 (His-tagged) [1] were 172 nM and 0.26 nM, respectively.

For orientation: Kd means the concentration at which binding is half-saturated. A high value points to lower affinity. As a reminder, the koff is the rate constant with which the complex falls apart. By kon is commonly meant the second-order rate constant of association.

The values above are taken from US20210102001A1 (CHIMAGEN BIOSCIENCES, published 2021).
